Measurements reported in patent publication US20260274954A1 (published 2026).

Legend:
[1] = target: cynomolgus PD-1 protein (construct not stated) (cynomolgus) (UniProt B0LAJ3); test: ELISA, second round mutagenesis library screen; unit not given
[2] = target: T1, cynomolgus PD-1 protein (construct not stated) (cynomolgus, UniProt B0LAJ3 25-170); test: as above
T1 construct: not shown: tag or Fc carrier of the recombinant (Sino Biological) cynomolgus PD-1
T1 sequence (B0LAJ3 entry or part of it limits assumed, form in doubt): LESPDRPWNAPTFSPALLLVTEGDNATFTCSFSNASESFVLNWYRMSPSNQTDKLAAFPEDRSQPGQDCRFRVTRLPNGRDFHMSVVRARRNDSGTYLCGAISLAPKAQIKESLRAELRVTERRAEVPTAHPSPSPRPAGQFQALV

Sequence of cynomolgus PD-1 protein (construct not stated) (cynomolgus) (B0LAJ3 entry or part of it limits assumed): as the sequence (B0LAJ3 entry or part of it limits assumed, form in doubt) above

Binder	Bmax [1]	Bmax [2]
L1I (antibody, V domains shown) VH: QVQLVQSGAEVKKPGSSVKVSCKASGFTFTTYYISWVRQAPGQGLEYLGYINMGSGGTNYNEKFKGRVTITADKSTSTAYMELSSLRSEDTAVYYCAIIGYFDYWGQGTMVTVSS VL: DVVMTQSPLSLPVTLGQPASISCRSSQSLLDSDGNTYLYWFQQRPGQSPRRLIYLVSTLGSGVPDRFSGSGSGTDFTLKISRVEAEDVGVYYCMQLTHAPYTFGQGTKLEIK	0.0517	–
2E5 (antibody, V domains shown) VH: QVQLVQSGAEVKKPGSSVKVSCKASGFTFTTYYISWVRQAPGQGLEYLGYINMGSGGTNYNEKFKGRVTITADKSTSTAYMELSSLRSEDTAVYYCAIIGYFDYWGQGTMVTVSS VL: DVVMTQSPLSLPVTLGQPASISCRSSQSLLDSDGGTYLYWFQQRPGQSPRRLIYLVSTLGSGVPDRFSGSGSGTDFTLKISRVEAEDVGVYYCMQLTHWPYTFGQGTKLEIK	–	1.72
1H6 (antibody, V domains shown) VH: QVQLVQSGAEVKKPGSSVKVSCKASGFTFTTYYISWVRQAPGQGLEYLGYINMGSGGTNYNEKFKGRVTITADKSTSTAYMELSSLRSEDTAVYYCAILGYFDYWGQGTMVTVSS VL: DVVMTQSPLSLPVTLGQPASISCRSSQSLLDSDGGTYLYWFQQRPGQSPRRLIYLVSTLGSGVPDRFSGSGSGTDFTLKISRVEAEDVGVYYCMQLTHWPYTFGQGTKLEIK	–	0.317
2C2 (antibody, V domains shown) VH: QVQLVQSGAEVKKPGSSVKVSCKASGFTFTTYYISWVRQAPGQGLEYLGYINMGSGGTNYNEKFKGRVTITADKSTSTAYMELSSLRSEDTAVYYCAIIGYFDYWGQGTMVTVSS VL: DVVMTQSPLSLPVTLGQPASISCRSSQSLLDSDGATYLYWFQQRPGQSPRRLIYLVSTLGSGVPDRFSGSGSGTDFTLKISRVEAEDVGVYYCMQLTHWPYTFGQGTKLEIK	–	1.67
2G4 (antibody, V domains shown) VH: QVQLVQSGAEVKKPGSSVKVSCKASGFTFTTYYISWVRQAPGQGLEYLGYINMGSGGTNYNEKFKGRVTITADKSTSTAYMELSSLRSEDTAVYYCAIIGYFDYWGQGTMVTVSS VL: DVVMTQSPLSLPVTLGQPASISCRSSQSLLDSDGSTYLYWFQQRPGQSPRRLIYLVSTLGSGVPDRFSGSGSGTDFTLKISRVEAEDVGVYYCMQLTHWPYTFGQGTKLEIK	–	1.72
2B1 (antibody, V domains shown) VH: QVQLVQSGAEVKKPGSSVKVSCKASGFTFTTYYISWVRQAPGQGLEYLGYINMGSGGTNYNEKFKGRVTITADKSTSTAYMELSSLRSEDTAVYYCAIIGYFDYWGQGTMVTVSS VL: DVVMTQSPLSLPVTLGQPASISCRSSQSLLDSDGNTYLYWFQQRPGQSPRRLIYLVSTLGSGVPDRFSGSGSGTDFTLKISRVEAEDVGVYYCMQLTHWPYTFGQGTKLEIK	–	1.21
1G10 (antibody, V domains shown) VH: QVQLVQSGAEVKKPGSSVKVSCKASGFTFTTYYISWVRQAPGQGLEYLGYINMGSGGTNYNEKFKGRVTITADKSTSTAYMELSSLRSEDTAVYYCAILGYFDYWGQGTMVTVSS VL: DVVMTQSPLSLPVTLGQPASISCRSSQSLLDSDGATYLYWFQQRPGQSPRRLIYLVSTLGSGVPDRFSGSGSGTDFTLKISRVEAEDVGVYYCMQLTHWPYTFGQGTKLEIK	–	1.08
5C4 (antibody, V domains shown) VH: QVQLVQSGAEVKKPGSSVKVSCKASGFTFTTYYISWVRQAPGQGLEYLGYINMGSGGTNYNEKFKGRVTITADKSTSTAYMELSSLRSEDTAVYYCAILGYFDYWGQGTMVTVSS VL: DVVMTQSPLSLPVTLGQPASISCRSSQSLLDSDGQTYLYWFQQRPGQSPRRLIYLVSTLGSGVPDRFSGSGSGTDFTLKISRVEAEDVGVYYCMQLTHEPYTFGQGTKLEIK	–	0.258
8C10 (antibody, V domains shown) VH: QVQLVQSGAEVKKPGSSVKVSCKASGFTFTTYYISWVRQAPGQGLEYLGYINMGSGGTNYNEKFKGRVTITADKSTSTAYMELSSLRSEDTAVYYCAIIGYFDYWGQGTMVTVSS VL: DVVMTQSPLSLPVTLGQPASISCRSSQSLLDSDGQTYLYWFQQRPGQSPRRLIYLVSTLGSGVPDRFSGSGSGTDFTLKISRVEAEDVGVYYCMQLTHENYTFGQGTKLEIK	–	1.11
